Experimental data reported in patent US20250043028A1 (Hoffmann-La Roche, published 2025).

B1: “2+1 IgG Crossfab, inverted”; CL/CH1 exchange (CH1A1A/V9) (anti-CEA/anti-huCD3) (bispecific antibody)
chain 1: QVQLVQSGAEVKKPGASVKVSCKASGYTFTEFGMNWVRQAPGQGLEWMGWINTKTGEATYVEEFKGRVTFTTDTSTSTAYMELRSLRSDDTAVYYCARWDFAYYVEAMDYWGQGTTVTVSSASTKGPSVFPLAPSSKSTSGGTAALGCLVKDYFPEPVTVSWNSGALTSGVHTFPAVLQSSGLYSLSSVVTVPSSSLGTQTYICNVNHKPSNTKVDKKVEPKSCDKTHTCPPCPAPEAAGGPSVFLFPPKPKDTLMISRTPEVTCVVVDVSHEDPEVKFNWYVDGVEVHNAKTKPREEQYNSTYRVVSVLTVLHQDWLNGKEYKCKVSNKALGAPIEKTISKAKGQPREPQVCTLPPSRDELTKNQVSLSCAVKGFYPSDIAVEWESNGQPENNYKTTPPVLDSDGSFFLVSKLTVDKSRWQQGNVFSCSVMHEALHNHYTQKSLSLSPGK
chain 2: DIQMTQSPSSLSASVGDRVTITCKASAAVGTYVAWYQQKPGKAPKLLIYSASYRKRGVPSRFSGSGSGTDFTLTISSLQPEDFATYYCHQYYTYPLFTFGQGTKLEIKRTVAAPSVFIFPPSDEQLKSGTASVVCLLNNFYPREAKVQWKVDNALQSGNSQESVTEQDSKDSTYSLSSTLTLSKADYEKHKVYACEVTHQGLSSPVTKSFNRGEC
chain 3: DIQMTQSPSSLSASVGDRVTITCRASQDIRNYLNWYQQKPGKAPKLLIYYTSRLESGVPSRFSGSGSGTDYTLTISSLQPEDFATYYCQQGNTLPWTFGQGTKVEIKSSASTKGPSVFPLAPSSKSTSGGTAALGCLVKDYFPEPVTVSWNSGALTSGVHTFPAVLQSSGLYSLSSVVTVPSSSLGTQTYICNVNHKPSNTKVDKKVEPKSC
chain 4: not shown
notes: also called CL/CH1-exchange construct
B2: “2+1 IgG scFab, wt” (anti-MCSP/anti-huCD3) (bispecific antibody)
chain 1: DIVLTQSPSSLSASLGDRVTISCSASQGIRNYLNWYQQRPDGTVKLLIYYTSSLHSGVPSRFSGSGSGTDYSLTISNLEPEDIATYYCQQYSKLPWTFGGGTKLEIKRTVAAPSVFIFPPSDEQLKSGTASVVCLLNNFYPREAKVQWKVDNALQSGNSQESVTEQDSKDSTYSLSSTLTLSKADYEKHKVYACEVTHQGLSSPVTKSFNRGEC
chain 2: not shown
chain 3: not shown
notes: Wild-type Fc domain; vectors transfected 1:2:1 (heavy chain : light chain : heavy chain-scFab); also called Fc-wt; copies: 2 + 1 + 1

Tests used:
[1] = molecular target: T1, human CEA expressed on tumor cells (LS-174T, MKN-45, MC38-huCEA) (human, UniProt P06731 35-685); experiment: cell-based or functional assay
T1 sequence (looked up): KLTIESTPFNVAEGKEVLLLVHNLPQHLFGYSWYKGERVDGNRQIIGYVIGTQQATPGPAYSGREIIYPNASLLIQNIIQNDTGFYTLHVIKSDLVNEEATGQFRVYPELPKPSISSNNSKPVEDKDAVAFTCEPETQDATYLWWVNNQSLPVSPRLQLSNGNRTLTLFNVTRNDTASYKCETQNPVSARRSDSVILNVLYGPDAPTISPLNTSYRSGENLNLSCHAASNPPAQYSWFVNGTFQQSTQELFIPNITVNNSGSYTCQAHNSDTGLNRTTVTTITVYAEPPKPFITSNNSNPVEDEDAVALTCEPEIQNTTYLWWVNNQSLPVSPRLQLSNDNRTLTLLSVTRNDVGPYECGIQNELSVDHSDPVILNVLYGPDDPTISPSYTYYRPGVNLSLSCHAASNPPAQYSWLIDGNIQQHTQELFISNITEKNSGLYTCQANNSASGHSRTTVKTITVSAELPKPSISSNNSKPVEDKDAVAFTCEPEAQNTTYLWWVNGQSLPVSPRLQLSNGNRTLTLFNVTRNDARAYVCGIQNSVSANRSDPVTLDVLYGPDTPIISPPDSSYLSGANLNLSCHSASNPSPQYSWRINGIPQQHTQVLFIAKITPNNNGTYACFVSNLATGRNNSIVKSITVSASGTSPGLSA

[2] = molecular target: T2, human CD3 expressed on Jurkat cells (human, UniProt P07766 23-207); experiment: flow cytometry on Jurkat cells; CL/CH1 exchange; CD3 on Jurkat cells
T2 construct: CD3 as part of the T cell receptor complex on Jurkat cells; also called huCD3; human CD3 on cells
T2 sequence (P07766 23-207 limits assumed): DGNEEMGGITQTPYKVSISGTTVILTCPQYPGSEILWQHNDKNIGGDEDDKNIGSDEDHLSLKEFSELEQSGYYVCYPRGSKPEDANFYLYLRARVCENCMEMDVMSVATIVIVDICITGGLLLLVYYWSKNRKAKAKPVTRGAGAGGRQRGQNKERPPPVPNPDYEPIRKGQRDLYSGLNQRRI
Protocol: (§1) Binding of the different bispecific constructs to CD3 on Jurkat cells (ATCC #TIB-152), and the respective tumor antigen on target cells, was determined by FACS. Briefly, cells were harvested, counted and checked for viability. 0.15-0.2 million cells per well (in PBS containing 0.1% BSA; 90 μl) were plated in a round-bottom 96-well plate and incubated with the indicated concentration of the bispecific constructs and corresponding IgG controls (10 μl) for 30 min at 4° C. For a better comparison, all constructs and IgG controls were normalized to same molarity. […] Bound constructs were detected using a FACSCantoII (Software FACS Diva). The “(scFv)₂” molecule was detected using a FITC-conjugated anti-His antibody (Lucerna, #RHIS-45F-Z). […] Unless otherwise indicated, cells were fixed with 100 μl/well fixation buffer (BD #554655) for 15 min at 4° C. in the dark, centrifuged for 6 min at 400×g and kept in 200 μl/well PBS containing 0.1% BSA until the samples were measured with FACS CantoII. EC50 values were calculated using the GraphPad Prism software.
(§2) As a control, the equivalent maximum concentration of the corresponding IgGs and the background staining due to the labeled 2ndary antibody (goat anti-human FITC-conjugated AffiniPure F(ab′)₂ Fragment, Fcγ Fragment-specific, Jackson Immuno Research Lab #109-096-098) were assessed as well.

[3] = molecular target: T1, human CEA expressed on tumor cells …; experiment: flow cytometry on LS-174T cells; CL/CH1 exchange; CEA on LS-174T cells
Protocol: as §1, §2

muFcγRIV-aviHis-biotin [4] = molecular target: T3, muFcγRIV-aviHis-biotin (murine, UniProt A0A0B4J1G0 21-203, Biotin on the lysine of the Avi tag (tag left out of the letters); C-terminal His tag used for capture by the anti-Penta His antibody); experiment: SPR Biacore T100, 25 °C, kinetic fit; receptor captured via anti-Penta His
T3 construct: Captured on an anti-Penta His antibody on a CM5 chip; also called murine FcγRIV; not shown: Avi-His tag (and any linker to it)
T3 sequence: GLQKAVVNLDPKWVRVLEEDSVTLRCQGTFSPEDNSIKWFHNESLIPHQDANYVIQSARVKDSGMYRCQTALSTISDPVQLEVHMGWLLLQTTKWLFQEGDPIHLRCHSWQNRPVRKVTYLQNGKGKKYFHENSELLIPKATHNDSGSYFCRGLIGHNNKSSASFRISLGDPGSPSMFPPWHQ
Protocol: (§3) For analyzing interaction of different Fc-variants with human FcγRIIIa-V158 and murine FcγRIV direct coupling of around 6,500 resonance units (RU) of the anti-Penta His antibody (Qiagen) is performed on a CM5 chip at pH 5.0 using the standard amine coupling kit (Biacore, Freiburg/Germany). HuFcγRIIIa-V158-K6H6 and muFcγRIV-aviHis-biotin are captured for 60 s at 4 and 10 nM respectively.
(§4) Constructs with different Fc-mutations are passed through the flow cells for 120 s at a concentration of 1000 nM with a flow rate of 30 μl/min. The dissociation is monitored for 220 s. Bulk refractive index differences are corrected for by subtracting the response obtained in a reference flow cell. Here, the Fc-variants are flown over a surface with immobilized anti-Penta His antibody but on which HBS-EP has been injected rather than HuFcγRIIIa-V158-K6H6 or muFcγRIV-aviHis-biotin. Affinity for human FcγRIIIa-V158 and murine FcγRIV was determined for wild-type Fc using a concentration range from 500-4000 nM.
(§5) The steady state response was used to derive the dissociation constant KD by non-linear curve fitting of the Langmuir binding isotherm. Kinetic constants were derived using the Biacore T100 Evaluation Software (vAA, Biacore AB, Uppsala/Sweden), to fit rate equations for 1:1 Langmuir binding by numerical integration.

HuFcγRIIIa-V158-K6H6 [5] = molecular target: T4, HuFcγRIIIa-V158-K6H6 (human, UniProt P08637 17-208); experiment: SPR Biacore T100, 25 °C, steady state; receptor captured via anti-Penta His, construct 500-4000 nM
T4 construct: Captured on an anti-Penta His antibody on a CM5 chip; also called human FcγRIIIa-V158; human FcγRIIIa; not shown: K6H6 tag
T4 sequence (P08637 17-208 F176V): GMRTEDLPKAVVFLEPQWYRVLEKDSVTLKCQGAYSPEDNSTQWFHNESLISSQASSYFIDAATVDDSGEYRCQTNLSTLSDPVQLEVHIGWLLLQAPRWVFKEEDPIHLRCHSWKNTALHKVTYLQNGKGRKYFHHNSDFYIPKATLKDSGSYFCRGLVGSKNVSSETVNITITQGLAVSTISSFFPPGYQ
Protocol: as §3, §4, §5

muFcγRIV-aviHis-biotin [6] = molecular target: T3, muFcγRIV-aviHis-biotin; experiment: as above
Protocol: as §3, §4, §5

HuFcγRIIIa-V158-K6H6 [7] = molecular target: T4, HuFcγRIIIa-V158-K6H6; experiment: SPR Biacore T100, 25 °C, kinetic fit, one concentration (1000 nM); receptor captured via anti-Penta His
Protocol: as §3, §4, §5

HuFcγRIIIa-V158-K6H6 [8] = molecular target: T4, HuFcγRIIIa-V158-K6H6; experiment: SPR Biacore T100, 25 °C, kinetic fit (value in brackets, not explained); receptor captured via anti-Penta His
Protocol: as §3, §4, §5

| Binder | EC50 of killing (LDH release) of LS-174T cells, human PBMCs, E:T 10:1, 28 h [1] [nM] | EC50 of killing (LDH release) of MKN-45 cells, human PBMCs, E:T 10:1, 28 h [1] [nM] | EC50 [2] [nM] | EC50 [3] [nM] | Kd (muFcγRIV-aviHis-biotin [4]) [nM] | Kd (HuFcγRIIIa-V158-K6H6 [5]) [nM] | Kd (muFcγRIV-aviHis-biotin [6]) [nM] | Kd (HuFcγRIIIa-V158-K6H6 [7]) [nM] | Kd (HuFcγRIIIa-V158-K6H6 [8]) [nM] |
| --- | --- | --- | --- | --- | --- | --- | --- | --- | --- |
| B1 | 0.673 | 0.115 | 3.9 | 6.7 |  |  |  |  |  |
| B2 |  |  |  |  | 576 | 3470 | 1500 | 600 | 1200 |
